B1: G/T mismatch-specific thymine DNA glycosylase (Mus musculus), P56581 (parent)
chain: MDAEAARSYSLEQVQALYSFPFQQMMAEVPNMAVTTGQQVPAVAPNMATVTEQQVPEDAPVQEPAPEAPKRRKRKPRAAEPQEPVEPKKPATSKKSGKSTKSKEKQEKITDAFKVKRKVDRFNGVSEAELLTKTLPDILTFNLDIVIIGINPGLMAAYKGHHYPGPGNHFWKCLFMSGLSEVQLNHMDDHTLPGKYGIGFTNMVERTTPGSKDLSSKEFREGGRILVQKLQKYQPRIAVFNGKCIYEIFSKEVFGVKVKNLEFGLQPHKIPDTETLCYVMPSSSARCAQFPRAQDKVHYYIKLKDLRDQLKGIERNADVQEVQYTFDLQLAQEDAKKMAVKEEKYDPGYEAAYGGAYGENPCNGEPCGIASNGLTAHSAEPRGEAAPSDVPNGQWMAQSFAEQIPSFNNCGTREQEEESHA

Variants of: B1
Conditions: with ncoa1_human NCOA1, Q15788
Chain of ncoa1_human NCOA1, Q15788 (Q15788 whole entry): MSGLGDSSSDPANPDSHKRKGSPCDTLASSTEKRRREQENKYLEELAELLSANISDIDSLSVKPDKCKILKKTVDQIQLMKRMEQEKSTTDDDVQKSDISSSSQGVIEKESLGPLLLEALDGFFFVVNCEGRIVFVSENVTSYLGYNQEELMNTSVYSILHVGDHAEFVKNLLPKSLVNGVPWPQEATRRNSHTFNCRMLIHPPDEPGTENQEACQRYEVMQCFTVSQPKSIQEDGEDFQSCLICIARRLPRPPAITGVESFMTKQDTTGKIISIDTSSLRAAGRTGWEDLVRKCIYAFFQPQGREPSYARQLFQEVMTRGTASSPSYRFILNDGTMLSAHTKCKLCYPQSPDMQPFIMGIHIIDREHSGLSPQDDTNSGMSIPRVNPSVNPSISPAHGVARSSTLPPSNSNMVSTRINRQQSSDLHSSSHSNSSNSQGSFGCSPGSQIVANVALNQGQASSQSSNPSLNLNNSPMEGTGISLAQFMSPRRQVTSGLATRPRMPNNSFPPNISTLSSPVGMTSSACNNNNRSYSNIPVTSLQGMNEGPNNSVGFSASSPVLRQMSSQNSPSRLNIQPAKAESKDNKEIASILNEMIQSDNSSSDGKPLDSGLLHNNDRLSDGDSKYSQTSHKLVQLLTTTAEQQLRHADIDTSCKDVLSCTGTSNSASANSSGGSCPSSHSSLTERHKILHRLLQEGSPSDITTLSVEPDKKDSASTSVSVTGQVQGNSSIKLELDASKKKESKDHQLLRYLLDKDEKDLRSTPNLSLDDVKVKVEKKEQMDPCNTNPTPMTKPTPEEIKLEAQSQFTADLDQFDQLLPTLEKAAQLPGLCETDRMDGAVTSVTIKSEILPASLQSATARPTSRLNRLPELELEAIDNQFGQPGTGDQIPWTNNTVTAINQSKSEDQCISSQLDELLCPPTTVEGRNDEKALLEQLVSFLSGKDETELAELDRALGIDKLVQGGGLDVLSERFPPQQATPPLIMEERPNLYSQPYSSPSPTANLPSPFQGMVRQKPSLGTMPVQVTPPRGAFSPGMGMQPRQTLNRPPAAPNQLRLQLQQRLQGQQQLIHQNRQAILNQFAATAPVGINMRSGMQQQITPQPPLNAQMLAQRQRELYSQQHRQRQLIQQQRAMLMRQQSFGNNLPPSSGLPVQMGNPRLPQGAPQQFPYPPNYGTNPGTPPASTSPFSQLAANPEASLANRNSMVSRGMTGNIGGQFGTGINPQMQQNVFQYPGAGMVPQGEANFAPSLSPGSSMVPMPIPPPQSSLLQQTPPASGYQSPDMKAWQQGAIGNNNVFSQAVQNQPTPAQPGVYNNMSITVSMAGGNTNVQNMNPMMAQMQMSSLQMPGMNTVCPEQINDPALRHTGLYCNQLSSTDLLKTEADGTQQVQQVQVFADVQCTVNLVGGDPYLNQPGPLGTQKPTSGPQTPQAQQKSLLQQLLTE

effect of a mutation on the interaction	Variant
decreasing interaction strength	Y353A;Y357A
decreasing interaction strength	Y345A;Y349A;Y353A;Y357A
decreasing interaction strength	Y345A;Y349A

Variants of: B1
Conditions: with ncoa1_human NCOA1, Q15788
Remark: another data set of the same source

effect of a mutation on the interaction	Variant
decreasing interaction strength	Y345F;Y349F;Y353F;Y357F
decreasing interaction strength	Y353F;Y357F
with no effect	D144A;V146A;I147A
decreasing interaction strength	Y345F;Y349F
with no effect	N151A

— IntAct's records for PubMed 16282588
